Measurements taken from PMC4725768.

Assays:
[1] = target: A391E EC+TM FGFR3 construct (human)
[2] = target: EC+TM (A374I-G375I-S378I) FGFR3 mutant (human)
[3] = target: EC+TM (L377I-G380I-A391I) FGFR3 mutant (human)
[4] = target: FGFR1 EC+TM-(GGS)5-YFP / FGFR1 EC+TM-(GGS)5-mCherry (human)
[5] = target: FGFR3 EC+TM-(GGS)5-YFP / FGFR3 EC+TM-(GGS)5-mCherry (human)
[6] = target: full-length FGFR3 (human FGFR3 IIIc) fused to YFP or mCherry (human) (UniProt P22607)
UniProt P22607, sequence (P22607 23-806): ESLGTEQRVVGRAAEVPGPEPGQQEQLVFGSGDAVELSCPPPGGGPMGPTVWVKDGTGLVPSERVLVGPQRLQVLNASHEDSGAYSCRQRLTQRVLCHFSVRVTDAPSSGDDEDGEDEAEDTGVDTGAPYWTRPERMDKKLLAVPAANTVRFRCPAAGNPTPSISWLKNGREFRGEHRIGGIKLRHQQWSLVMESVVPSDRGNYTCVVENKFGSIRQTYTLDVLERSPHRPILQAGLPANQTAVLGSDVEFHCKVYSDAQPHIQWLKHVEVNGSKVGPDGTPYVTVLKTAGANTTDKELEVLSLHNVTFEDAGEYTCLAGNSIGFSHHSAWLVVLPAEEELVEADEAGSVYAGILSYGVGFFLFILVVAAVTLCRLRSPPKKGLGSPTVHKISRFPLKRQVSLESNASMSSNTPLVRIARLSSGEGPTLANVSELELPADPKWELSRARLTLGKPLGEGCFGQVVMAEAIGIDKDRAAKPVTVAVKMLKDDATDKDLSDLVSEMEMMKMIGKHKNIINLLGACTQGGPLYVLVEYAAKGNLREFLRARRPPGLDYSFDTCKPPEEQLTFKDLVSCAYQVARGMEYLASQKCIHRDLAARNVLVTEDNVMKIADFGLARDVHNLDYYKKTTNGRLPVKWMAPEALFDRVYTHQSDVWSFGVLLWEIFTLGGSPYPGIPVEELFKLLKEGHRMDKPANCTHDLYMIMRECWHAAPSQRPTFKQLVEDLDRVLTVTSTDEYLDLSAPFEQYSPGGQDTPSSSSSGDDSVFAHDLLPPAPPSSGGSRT

| Substance | intrinsic FRET of the EC+TM FGFR3 A391E dimer (QI-FRET in vesicles) at saturating fgf1 [1] | intrinsic FRET of the EC+TM FGFR3 A374I-G375I-S378I dimer (QI-FRET in vesicles) at saturating fgf1 [2] | intrinsic FRET of the EC+TM FGFR3 L377I-G380I-A391I dimer (QI-FRET in vesicles) at saturating fgf1 [3] | intrinsic FRET of the EC+TM FGFR1 dimer (QI-FRET in vesicles) at saturating fgf1 (5 μg ml^−1) [4] | intrinsic FRET of the EC+TM FGFR3 dimer (QI-FRET in vesicles) at saturating fgf1 (5 μg ml^−1) [5] | fold increase of full-length FGFR3 phosphorylation (western blot, anti-phospho-Tyr) at saturating fgf1 over no ligand [6] [fold] | intrinsic FRET of the EC+TM FGFR3 A391E dimer (QI-FRET in vesicles) at saturating fgf2 [1] | intrinsic FRET of the EC+TM FGFR3 A374I-G375I-S378I dimer (QI-FRET in vesicles) at saturating fgf2 [2] | intrinsic FRET of the EC+TM FGFR3 L377I-G380I-A391I dimer (QI-FRET in vesicles) at saturating fgf2 [3] | intrinsic FRET of the EC+TM FGFR1 dimer (QI-FRET in vesicles) at saturating fgf2 (5 μg ml^−1) [4] | intrinsic FRET of the EC+TM FGFR3 dimer (QI-FRET in vesicles) at saturating fgf2 (5 μg ml^−1) [5] | fold increase of full-length FGFR3 phosphorylation (western blot, anti-phospho-Tyr) at saturating fgf2 over no ligand [6] [fold] |
| --- | --- | --- | --- | --- | --- | --- | --- | --- | --- | --- | --- | --- |
| human fgf1 (from UniProt P05230 16-155) (ligand) | 0.75 | 0.63 | 0.52 | 0.55 | 0.55 | 1.5 to 3 |  |  |  |  |  |  |
| human fgf2 (from UniProt P09038 143-288) (ligand) |  |  |  |  |  |  | 0.78 | 0.74 | 0.53 | 0.73 | 0.72 | 2 to 4 |
